Reference: patent publication US20220144940A1 (VIELA BIO, published 2022)
Numbering of substitutions follows the chain as printed. Several values for one entry are separate records, joined by “and”; a condition that tells them apart may be missing. Equal values may be shown once. Values belong to the binder of their own block, whether it stands above or below them.

Tests used:
[1] = biological target: T1, HA-tagged human ILT7 on CT-550 cells (human, UniProt P59901 24-499); experiment: cell-based or functional assay
T1 sequence (P59901 24-499): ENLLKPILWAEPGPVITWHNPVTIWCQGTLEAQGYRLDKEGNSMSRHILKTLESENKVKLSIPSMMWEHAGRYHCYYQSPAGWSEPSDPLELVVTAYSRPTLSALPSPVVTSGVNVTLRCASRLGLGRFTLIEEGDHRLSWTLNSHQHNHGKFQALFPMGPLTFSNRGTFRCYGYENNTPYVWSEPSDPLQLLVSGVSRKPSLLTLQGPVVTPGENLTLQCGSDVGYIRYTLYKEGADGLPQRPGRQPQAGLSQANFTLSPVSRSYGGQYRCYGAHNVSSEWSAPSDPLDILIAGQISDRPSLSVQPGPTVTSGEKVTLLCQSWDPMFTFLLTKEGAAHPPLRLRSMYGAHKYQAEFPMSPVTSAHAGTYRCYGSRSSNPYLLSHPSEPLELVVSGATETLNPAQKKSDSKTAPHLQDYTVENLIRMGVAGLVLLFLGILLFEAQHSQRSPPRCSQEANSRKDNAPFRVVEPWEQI

cynomolgus ILT7 [2] = biological target: T2, cynomolgus ILT7 (cynomolgus, UniProt P59901 24-499 (human entry)); experiment: cell-based or functional assay
T2 sequence (P59901 other isoform, or with tags, fused parts or gaps limits assumed): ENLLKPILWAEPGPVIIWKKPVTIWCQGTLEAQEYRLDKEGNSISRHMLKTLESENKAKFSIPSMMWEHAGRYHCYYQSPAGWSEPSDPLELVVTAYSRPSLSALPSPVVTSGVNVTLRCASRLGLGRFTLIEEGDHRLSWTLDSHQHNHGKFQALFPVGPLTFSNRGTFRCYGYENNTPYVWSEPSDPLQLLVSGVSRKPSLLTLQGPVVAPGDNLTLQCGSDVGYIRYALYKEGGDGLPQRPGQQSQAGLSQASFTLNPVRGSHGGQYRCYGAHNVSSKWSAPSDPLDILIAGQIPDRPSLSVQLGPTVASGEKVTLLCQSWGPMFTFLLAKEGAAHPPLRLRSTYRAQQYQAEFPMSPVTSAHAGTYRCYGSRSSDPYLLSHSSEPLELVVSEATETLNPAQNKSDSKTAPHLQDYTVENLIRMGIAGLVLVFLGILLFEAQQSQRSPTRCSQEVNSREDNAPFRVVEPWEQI

[3] = biological target: T1, HA-tagged human ILT7 on CT-550 cells; experiment: flow cytometry on human ILT7-expressing cells, left panel 'Human ILT7', table 'Ec50 (nM)'
Experimental: (§1) Binding of anti-ILT7 variants and isotype controls on human and cynomolgus ILT7 was assessed by flow cytometry analysis using CT-550 and cynoILT7 CT-125 cells respectively. CT-125 cells were used as control. Cells were resuspended in Blocking Buffer (PBS supplemented with 10% FBS) at a concentration of 5 million cells per mL and transferred into a round-bottom 96-well plates (BD Falcon™ Clear Microtest Plate, BD Biosciences) at 100 μL per well. Anti-ILT7 variants and control antibodies were added onto the cells for 30 min at 4° C. on a plate shaker. Cells were washed three times with PBS and resuspended in Blocking Buffer (100 μL/well). Human IgG binding on cell surface was detected using a secondary anti-human IgG antibody conjugated to DyLight 649 (1 in 1000 dilution). Cells were incubated in the dark for 30 min at 4° C. on a plate shaker. Cells were washed three times with PBS and surface fluorescence was acquired using LSRII Flow Cytometry System and FACSDiva Software (both from BD Biosciences).

cynomolgus ILT7 [4] = biological target: T2, cynomolgus ILT7; experiment: flow cytometry on cynomolgus ILT7-expressing cells, right panel 'Cyno ILT7', table 'Ec50 (nM)'
Experimental: as §1

[5] = biological target: T1, HA-tagged human ILT7 on CT-550 cells; experiment: flow cytometry (MFI) on human ILT7-expressing cells
Experimental: as §1
Anfucosylated version of ILT70080.6 was generated. […] The tables in FIG. 15 provide the mean results of three independent binding experiments measuring mean fluorescence intensity (MFI).

cynomolgus ILT7 [6] = biological target: T2, cynomolgus ILT7; experiment: flow cytometry (MFI) on cynomolgus ILT7-expressing cells
Experimental: as §1

[7] = biological target: T1, HA-tagged human ILT7 on CT-550 cells; experiment: flow cytometry on CT-550 cells
Experimental: as §1
In order to determine the binding EC50 of ILT70019, ILT70028, ILT70052, ILT70076, ILT70080, ILT70083, ILT70089, ILT70100, ILT70137, ILT70142 and ILT70144 on cells expressing human ILT7, the candidates were screened for binding on CT-550 cells by flow cytometry. ILT70080 (EC₅₀=0.28 nM), ILT70083 (EC₅₀=0.37 nM), ILT70137 (EC₅₀=0.41 nM), ILT70144, ILT70142, ILT70052, and ILT70100 bound to human ILT7-expressing cells. […] The anti-ILT7 antibodies 7C7 (7C7 is described above in Example 1) and SBI33 (SBI33 refers to the anti-ILT7 antibody ILT7#33 provided in U.S. Published Application No. 2009/0280128) were used as positive controls.

cynomolgus ILT7 [8] = biological target: T2, cynomolgus ILT7; experiment: flow cytometry on CynoILT7 CT-125 cells
Experimental: as §1
In order to determine the binding EC₅₀ of the variants on cells expressing cynomolgus ILT7, the antibodies were screened for binding on CynoILT7 CT-125 cells by flow cytometry. […] The graph in FIG. 3 represents the mean results from two independent experiments, and the table in FIG. 3 show the average EC₅₀.

cynomolgus ILT7 [9] = biological target: T2, cynomolgus ILT7; experiment: flow cytometry on cynomolgus ILT7-expressing cells, bottom panel, table 'Ec50 (pM)'
Experimental: as §1

[10] = biological target: T1, HA-tagged human ILT7 on CT-550 cells; experiment: flow cytometry (MFI) on human ILT7-expressing cells, left panel 'Human ILT7', table 'Ec50 (pM) Mean ± SD n=3'
cynomolgus ILT7 [11] = biological target: T2, cynomolgus ILT7; experiment: flow cytometry (MFI) on cynomolgus ILT7-expressing cells, right panel 'Cynomolgus ILT7', table 'Ec50 (pM) Mean ± SD n=3'
human ILT7 [12] = biological target: T3, human ILT7 (human, UniProt P59901 24-499); experiment: cell-based or functional assay
T3 sequence (P59901 24-499): as the sequence (P59901 24-499) above

human ILT7 [13] = biological target: T3, human ILT7; experiment: flow cytometry (MFI) on cell line stably expressing human ILT7
Experimental: (§2) Binding of afucosylated ILT70137 to ILT7 was determined using cell lines stably expressing human or cynomolgus monkey ILT7. The mean fluorescence intensity of cell-bound antibodies was assessed by flow cytometry. Cells were incubated with increasing concentrations of test antibody ranging from 0.004 to 333.3 nM for 30 minutes at 4° C. After incubation, cells were washed with cold PBS and incubated for 30 minutes at 4° C. with an anti-human-Alexa Fluor 647 antibody. Fluorescent intensity was then determined by FACS and EC₅₀ values were calculated using a non-linear fit equation in GraphPad Prism 6 software.

[14] = biological target: T4, recombinant human ILT7 protein (human, UniProt P59901 24-446, limits assumed); experiment: BIAcore SPR, IgG captured on chip, ILT7 protein as analyte, koff/kon
T4 construct: Soluble recombinant protein used in ProteOn and BIAcore SPR; also called rILT7; Soluble Recombinant Human ILT7
T4 sequence (P59901 24-446 limits assumed): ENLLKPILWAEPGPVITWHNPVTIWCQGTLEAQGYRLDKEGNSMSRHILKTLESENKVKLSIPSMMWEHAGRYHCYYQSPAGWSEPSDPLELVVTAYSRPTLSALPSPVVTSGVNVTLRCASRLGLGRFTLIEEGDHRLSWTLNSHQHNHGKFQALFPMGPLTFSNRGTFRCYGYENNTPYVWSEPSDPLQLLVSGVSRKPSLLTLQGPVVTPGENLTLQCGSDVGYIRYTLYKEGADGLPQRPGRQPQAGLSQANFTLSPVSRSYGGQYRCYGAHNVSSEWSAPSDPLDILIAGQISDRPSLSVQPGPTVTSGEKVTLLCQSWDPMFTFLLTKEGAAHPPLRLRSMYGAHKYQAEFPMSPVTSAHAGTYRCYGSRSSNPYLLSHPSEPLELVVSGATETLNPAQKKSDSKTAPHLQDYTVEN
Experimental: (§3) BIAcore (surface plasmon resonance) was used to measure the kinetic rate (kₒₙ, koff) constants for the binding of afucosylated IgG₁ ILT70137 to human ILT7 protein using an IgG-capture assay format. The binding of each concentration of a two-fold dilution series of the ILT7 protein was recorded after first capturing IgG onto the sensor chip surface, followed by either the ILT7 protein or instrument buffer. In between each pair of injections, the IgG capture surface was regenerated. Individual association and dissociation rate constants were then calculated from the resulting binding curves using the Biaevaluation software available through the vendor's software employing a 1:1 fitting model, which included a term to correct for mass transport limited binding, should it be detected. […] The individual errors for kₒₙ and koff were low, and the overall fit to the data was good as judged by Chi2 values of ˜1% of the calculated Rₘₐₓ (maximum response).

[15] = biological target: T4, recombinant human ILT7 protein; experiment: BIAcore SPR, IgG captured on chip, ILT7 protein as analyte, 1:1 model
Experimental: as §3

cynomolgus ILT7 [16] = biological target: T2, cynomolgus ILT7; experiment: flow cytometry (MFI) on cell line stably expressing cynomolgus monkey ILT7
Experimental: as §2

[17] = biological target: T4, recombinant human ILT7 protein; experiment: SPR on ProteOn

ADCC EC50 [1]: 1 pM | ADCC EC50 (cynomolgus ILT7 [2]): 0.51 pM | EC50 [3]: 340 pM | EC50 (cynomolgus ILT7 [4]): 400 pM
B1: afucosylated ILT70080 (antibody, V domains shown)
VH: QVQLVQSGAEVKAPGTSVKVSCKASGDSFRNYAVSWVRQAPGQGLEWMGAMMPSFGTREHSQQFNGRVTLSADESTSTAYLELSSLRYDDTAVYYCAGSRDYNAYHFWTGPPDFWGRGTLVTVSS
VL: SYELTQPPSVSVAPGKTAKISCGGDSVGSTSVHWYQQKPGQAPVMVMFYNSDRPSGIPERFSGSISGNTATLTISRVEAGDEADYYCQVWDTSSDHPEFGGGTKLTVL
modifications: afucosylated: lacks the α-1,6 fucose moiety on the N-glycan at Asn-297 of the heavy chain
notes: also called Afucosylated variant ITL70080

ADCC EC50 [1]: 1.12 pM | ADCC EC50 (cynomolgus ILT7 [2]): 0.44 pM | EC50 [5]: 152 pM | EC50 (cynomolgus ILT7 [6]): 366 pM
B2: afucosylated ILT70080.6 (antibody, V domains shown)
VH: B1 VH with A13K, T16S, N65Q, S71T, L81M, Y88S, D89E
VL: B1 VL with E3V, K19R, S21T, M45L, M47I, F48Y, I65N
modifications: afucosylated
notes: also called afucosylated ILT0080.6

ADCC EC50 (human ILT7 [12]): 4.19 pM | ADCC EC50 (cynomolgus ILT7 [2]): 1.89 pM | EC50 (human ILT7 [13]): 303 pM | Kd [14]: 171000 pM | koff [15]: 0.0318 s⁻¹ | kon [15]: 186000 M⁻¹ s⁻¹ | EC50 (cynomolgus ILT7 [16]): 2150 pM
B5: afucosylated IgG1 ILT70137 (antibody, V domains shown)
VH: QVQLQQSGAEVKKPGASVKVSCKASGYTFTSYGISWVRQAPGQGLEWMGWISAYNGNTNYAQKLQGRVTMTTDTSTSTAYMELRSLRSDDTAVYYCARNGLWGWDSDAFDIWGRGTLVTVSS
VL: QSALTQPASVSGSPGQSITISCTGTSSDVGGYNYVSWYQQHPGKAPKLMIYDVSNRPSGVSNRFSGSKSGNTASLTISGLQAEDEADYYCSSYTSSSTVVFGGGTKVTVL
modifications: afucosylated (made as in Example 7: lacks the α-1,6 fucose moiety on the N-glycan at Asn-297 of the heavy chain)
notes: also called afucosylated ILT70137; Afuc IgG1 ILT70137

The remaining lines, values behind:

B3: ILT70083 (antibody, V domains shown)
VH: EVQLLESGGGLVQPGGSLRLSCAASGFTFSSYAMSWVRQAPGKGLEWVSAISGSGGSTYYADSVKGWFTISRDNSKNTLYLQMNSLRAEDTAVYYCARRTYYYDSDGHSDVFDIWGRGTLVTVSS
VL: QSVVTQPPSVSAAPGQKVTISCSGSASNIGSNFVSWYQQLPGRAPKLLIYDNDKRDLGIPDRFSASISSTSAALAITGLQTEDEADYYCGTWDTSLTVGVFGGGTKLTVL
ADCC EC50 [1]: 89 pM and 94 pM | ADCC EC50 (cynomolgus ILT7 [2]): 433 pM and 360 pM | EC50 [7]: 370 pM and 464 pM | EC50 (cynomolgus ILT7 [8]): 1370 pM | EC50 (cynomolgus ILT7 [9]): 2650 pM | EC50 [3]: 250 pM | EC50 [10]: 308 pM | EC50 (cynomolgus ILT7 [11]): 1280 pM

B4: ILT70137 (antibody, V domains shown)
VH: B5 VH
VL: B5 VL
ADCC EC50 [1]: 44 pM | ADCC EC50 (cynomolgus ILT7 [2]): 15 pM | EC50 [7]: 410 pM | EC50 (cynomolgus ILT7 [8]): 1400 pM

B6: 10D10 (antibody, V domains shown)
VH: EVQLVESGGGVVQPGRSLRLSCAASGFTFSTYPIEWVRQAPGQGLEWIGNFHLYNDDTKYNEKFKGRVTMTTDTSTSTVYMELSSLRSEDTAVYYCTRGDDYGMDYWGQGTLVTVSS
VL: NIQMTQSPSSLSASVGDRVTITCKASQNVRTAVAWYQQKPGKAPKRLIYLASNRHTGVPSRFSGSGSGTDFTLTISSLQSEDFATYYCLQHWNYPFTFGPGTKLEIK
notes: Humanized variant of SBI28 from a framework-shuffled Fab library
fold lower affinity than SBI28ch [17]: 3 fold
